Experimental data taken from publication PMC8357241.

Tested on: PARP1
Assay: fluorescence polarization
Settings: EMSA: 20 mM Hepes pH 7.8, 150 mM NaCl, 2 mM MgCl2, 0.5 mM TCEP, 0.05 mg/ml BSA; TIRF same salts with 1 mg/ml BSA, 1 mg/ml beta-casein, 500 nM SYTOX Orange …

DNA dumbbell containing a SSB
Kd: 71 nM
